This is an account of results in the supplement of paper PMC10567573.

This data set is described as follows: protein stability index of a GFP-peptide fusion (GPS, HEK-293T) (PSI 1-6); higher = more stable. Conditions: c terminus: a fixed tail appended.

± gives the standard deviation.
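Note: 24-mer peptide tiles fused after GFP, lentivirally expressed, FACS-sorted into six equal bins by GFP/DsRed ratio, decoded by Illumina sequencing, PSI is the read-weighted mean bin number.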

QDLCGVSTCDTLGMADVGTVCDPA [ADAMTS4]: the protein stability index is, setting by setting: (treatment: DMSO) 5.07 ± 0.25; (treatment: MLN4924 1 uM, 8 h) 5.25 ± 0.26.

QDVDPVHNLIEQVSLGLGQPWHAV [FBXO33]: the protein stability index reads like this: (treatment: DMSO) 2.75 ± 0.17; (treatment: MLN4924 1 uM, 8 h) 2.55 ± 0.18.

The sequence QEALDPGPFDQGSPFAQELLDDGQ [ELF3] showed a protein stability index (treatment: DMSO) of 5.58 ± 0.24 and a protein stability index (treatment: MLN4924 1 uM, 8 h) of 5.32 ± 0.14.

As to QEEEEDNRDSSMKLSFRARAYGFR [CHGA], the protein stability index runs as follows: (treatment: DMSO) 4.58 ± 0.13; (treatment: MLN4924 1 uM, 8 h) 4.62 ± 0.28.

As to QETPGPREALTRLQELCYQWLRPH [ZSCAN9], the protein stability index was determined as 2.54 ± 0.12 (treatment: DMSO) and 2.6 ± 0.17 (treatment: MLN4924 1 uM, 8 h).

Consider QFLEEINKWTVQYNVSPLSWNVAV [PTPN9], for which the protein stability index was 2.79 ± 0.82 (treatment: DMSO) and 2.87 ± 0.49 (treatment: MLN4924 1 uM, 8 h).

Regarding QGLRPRTVSSPIPYTPSPSSSRPI [CCDC6], the protein stability index by setting is: (treatment: DMSO) 4.64 ± 0.22; (treatment: MLN4924 1 uM, 8 h) 4.7 ± 0.16.

On to QGQAKTPDSMFLAMLAVVSCASIG [CDK11A], for which the protein stability index is, setting by setting: (treatment: DMSO) 3.36 ± 0.59; (treatment: MLN4924 1 uM, 8 h) 3.11 ± 0.63.

As for QKGSHPMCKEHEDEKINIYCLTCE [TRIM63], the protein stability index is, setting by setting: (treatment: DMSO) 4.64 ± 0.22; (treatment: MLN4924 1 uM, 8 h) 4.67 ± 0.17.

For QKLGSGAWDNPAYSGPPSPHGTLR [PKD2L1], the protein stability index (treatment: DMSO) came out at 3.79 ± 0.1 and the protein stability index (treatment: MLN4924 1 uM, 8 h) came out at 3.95 ± 0.31.

QKLQEITRCKSSEEKKPGELKRLV [TRIM39] showed a protein stability index (treatment: DMSO) of 4.16 ± 0.37 and a protein stability index (treatment: MLN4924 1 uM, 8 h) of 4.21 ± 0.17.

Turning to QKTLQVKCQHYKKKRTEQEETIAS [CEP70], the protein stability index reads like this: (treatment: DMSO) 4.33 ± 0.34; (treatment: MLN4924 1 uM, 8 h) 4.64 ± 0.2.

On to QLGYLLFGTQVENFSTFIKCIFTQ [PKD2L1], for which the protein stability index was 2.83 ± 0.41 (treatment: DMSO) and 3.27 ± 0.55 (treatment: MLN4924 1 uM, 8 h).

With QLKEEMARHLREYQELLNVKMALD [PRPH], the protein stability index (treatment: DMSO) is 3.32 ± 0.22 and the protein stability index (treatment: MLN4924 1 uM, 8 h) came to 3.5 ± 0.36.

QLMEKLREKQLSHSLRAVSTDPPH [BEX1]: the protein stability index was found to be 3.35 ± 0.37 (treatment: DMSO) and 3.27 ± 0.34 (treatment: MLN4924 1 uM, 8 h).

Take QLPRPPIVGGNKGRSGPLPPVPLG [WAS]: the protein stability index runs as follows: (treatment: DMSO) 3.55 ± 0.13; (treatment: MLN4924 1 uM, 8 h) 3.83 ± 0.64.

Turning to QLSIERGKVLQNKQAEICQLEEKL [CCDC89], the protein stability index is 4.58 ± 0.4 (treatment: DMSO) and 4.45 ± 0.37 (treatment: MLN4924 1 uM, 8 h).

Consider QMSGEPLDKLNFEAINFCRGLGSQ [ACSBG2], for which the protein stability index was determined as 3.51 ± 0.49 (treatment: DMSO) and 2.89 ± 0.39 (treatment: MLN4924 1 uM, 8 h).

Regarding QNVHFHRSGSPTVPIKPPCIPNGK [CAMK2D], the protein stability index (treatment: DMSO) was 3.85 ± 0.26 and the protein stability index (treatment: MLN4924 1 uM, 8 h) came out at 4.05 ± 0.2.

In the case of QPHHQPPNRAGAPGESLECPAELR [TRAF3IP2], the protein stability index by setting is: (treatment: DMSO) 5.42 ± 0.23; (treatment: MLN4924 1 uM, 8 h) 5.21 ± 0.23.

As to QPSKSHKKVLKKMLKFLAKGEVPK [ATE1], the protein stability index (treatment: DMSO) was 2.13 ± 0.36 and the protein stability index (treatment: MLN4924 1 uM, 8 h) worked out at 2.26 ± 0.58.

With QQIHVVSQFKILVSLLENNIYVHD [VPS39], the protein stability index by setting is: (treatment: DMSO) 3.08 ± 0.059; (treatment: MLN4924 1 uM, 8 h) 3.23 ± 0.28.

Consider QQTHNIEKAHECTDCGKAFLKKSQ [ZNF649], for which the protein stability index is 3.93 ± 0.3 (treatment: DMSO) and 4.02 ± 0.17 (treatment: MLN4924 1 uM, 8 h).

Consider QRAWVRALNEQACRNGSSIQIAFE [C2CD2L], for which the protein stability index runs as follows: (treatment: DMSO) 2.46 ± 0.34; (treatment: MLN4924 1 uM, 8 h) 2.69 ± 0.16.

Take QREGTGKTVSLQIFSVLNSDDAAA [SMOC2]: the protein stability index (treatment: DMSO) turned out to be 3.38 ± 0.24 and the protein stability index (treatment: MLN4924 1 uM, 8 h) amounted to 3.35 ± 0.4.

On to QRLLGEDKFQWLAGLAPPSLFARA [ANKRD9], for which the protein stability index was found to be 2.59 ± 0.12 (treatment: DMSO) and 2.66 ± 0.28 (treatment: MLN4924 1 uM, 8 h).

On to QSCARAVVPSYIPLVKKHCDDSFT [CPOX], for which the protein stability index worked out at 2.73 ± 0.2 (treatment: DMSO) and 2.71 ± 0.27 (treatment: MLN4924 1 uM, 8 h).

On to QSCLLVIFATKPHVLPAVLAEVAP [PYCR3], for which the protein stability index by setting is: (treatment: DMSO) 3.09 ± 0.75; (treatment: MLN4924 1 uM, 8 h) 3.32 ± 0.74.

Regarding QSGGRLRRPVNVPLDMFSEEIKFY [KCNA1], the protein stability index runs as follows: (treatment: DMSO) 2.52 ± 0.28; (treatment: MLN4924 1 uM, 8 h) 2.75 ± 0.28.
